Positions count from the first letter of the chain named. Names may count otherwise. Values belong to the binder of their own block, whether it stands above or below them.
What was measured:
[1] = target: T1, StrepHA-SARAF_CytD-SGFP2 F228S (human, UniProt Q96BY9 195-339, F228S); assay: co-IP; co-IP/HiBiT assay: SGFP2-fused proteins immunoprecipitated with anti-GFP pAb from HEK293 or HEK293 ALG-2KO lysates (with or without co-expressed FLAG-ALG-2); HKM, 1% Nonidet P-40, 10 mM NEM, 10 μM CaCl2; co-precipitated HiBiTHA-SARAF read by lytic HiBiT assay with LgBiT, normalised by StrepTactin-AP; details: partners not purified
T1 construct: SARAF CytD, human, 195-339 a.a., F228S; also called F228S mutant; source: HEK293 or HEK293 ALG-2KO, transfected, in lysate; not shown: Twin-Strep, N-terminal, kept; 3xHA, N-terminal, kept; SGFP2, C-terminal, kept
T1 sequence (looked up): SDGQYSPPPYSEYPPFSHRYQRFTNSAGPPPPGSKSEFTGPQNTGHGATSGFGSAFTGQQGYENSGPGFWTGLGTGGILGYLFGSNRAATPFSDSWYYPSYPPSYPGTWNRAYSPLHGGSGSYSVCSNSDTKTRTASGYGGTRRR

[2] = target: T2, StrepHA-SARAF_CytD-SGFP2 (WT) (human, UniProt Q96BY9 195-339); assay: as above; details: partners not purified
T2 construct: SARAF cytosolic domain (CytD), human, 195-339 a.a; source: HEK293 or HEK293 ALG-2KO, transfected, in lysate; not shown: Twin-Strep, N-terminal, kept; 3xHA, N-terminal, kept; SGFP2, C-terminal, kept
T2 sequence (looked up): T1 sequence (looked up) with S34F

[3] = target: T3, SGFP2-fused SARAF partial fragment (SARAF-p) (human, UniProt Q96BY9 195-339); assay: pull-down; SGFP2-fused proteins held on protein G magnetic beads via anti-GFP pAb; incubated with Nluc-ALG-2 (300 ng/mL) in buffer HKM, 0.2% Nonidet P-40, 0.1% gelatin, 100 μM CaCl2, 2 h, 4 °C; bound luciferase activity relative to Sec31A-p (100%); details: one partner purified
T3 construct: source: HEK293 ALG-2KD, transfected, immunoprecipitated with anti-GFP pAb from cleared lysate
T3 sequence (looked up): T1 sequence (looked up) with S34F

relative interaction activity (WT expressed as 100%) [1]: ~15 % of WT
B1: full-length HiBiTHA-SARAF F228S (natural protein, human, UniProt Q96BY9 31-339, looked up)
chain: WNDPDRMLLRDVKALTLHYDRYTTSRRLDPIPQLKCVGGTAGCDSYTPKVIQCQNKGWDGYDVQWECKTDLDIAYKFGKTVVSCEGYESSEDQYVLRGSCGLEYNLDYTELGLQKLKESGKQHGFASFSDYYYKWSSADSCNMSGLITIVVLLGIAFVVYKLFLSDGQYSPPPYSEYPPFSHRYQRFTNSAGPPPPGSKSEFTGPQNTGHGATSGFGSAFTGQQGYENSGPGFWTGLGTGGILGYLFGSNRAATPFSDSWYYPSYPPSYPGTWNRAYSPLHGGSGSYSVCSNSDTKTRTASGYGGTRRR
notes: signal peptide in the construct; SARAF, human, full length, HiBiTHA inserted after the signal peptide; F228S; source: HEK293, transfected, in lysate; not shown: HiBiT, internal (after residue 30), kept

fold enhancement, Ca2+ over 5 mM EGTA, HEK293 ALG-2KO cells [2]: 1.3 fold | fold enhancement, Ca2+ over 5 mM EGTA, parental HEK293 cells [2]: 3.7 fold
B2: full-length HiBiTHA-SARAF (WT) (natural protein, human, UniProt Q96BY9 31-339, looked up)
chain: B1 chain with S198F
notes: signal peptide in the construct; SARAF, human, full length; HiBiT and 3xHA (HiBiTHA) inserted between the signal peptide and the N-terminus of mature SARAF (31-339 a.a.); construction is in the Supplementary Information; source: HEK293 or HEK293 ALG-2KO, transfected, in lysate; not shown: HiBiT, internal (after residue 30), kept

binding activity relative to Sec31A-p (100%) [3]: 71.5%
B3: nanoluciferase (NanoLuc, Nluc)-fused ALG-2 (natural protein, UniProt O75340 1-191, looked up)
chain: MAAYSYRPGPGAGPGPAAGAALPDQSFLWNVFQRVDKDRSGVISDTELQQALSNGTWTPFNPVTVRSIISMFDRENKAGVNFSEFTGVWKYITDWQNVFRTYDRDNSGMIDKNELKQALSGFGYRLSDQFHDILIRKFDRQGRGQIAFDDFIQGCIVLQRLTDIFRRYDTDQDGWIQVSYEQYLSMVFSIV
notes: synthetic gene for bacterial expression in pET24d; The whole Nluc-ALG-2 fusion is deposited as LC381846; also called Nluc-ALG-2; NlucALG-2

— PMC7504102, “The Penta-EF-Hand ALG-2 Protein Interacts with the Cytosolic Domain of the SOCE Regulator SARAF and Interferes with Ubiquitination” (International Journal of Molecular Sciences, 2020)
